The test deals with human PD-L1 expressed on the surface of cells (human, UniProt Q9NZQ7 19-290). In words: FACS binding to human lymphocytes.
Sequence of human PD-L1 expressed on the surface of cells (Q9NZQ7 19-290): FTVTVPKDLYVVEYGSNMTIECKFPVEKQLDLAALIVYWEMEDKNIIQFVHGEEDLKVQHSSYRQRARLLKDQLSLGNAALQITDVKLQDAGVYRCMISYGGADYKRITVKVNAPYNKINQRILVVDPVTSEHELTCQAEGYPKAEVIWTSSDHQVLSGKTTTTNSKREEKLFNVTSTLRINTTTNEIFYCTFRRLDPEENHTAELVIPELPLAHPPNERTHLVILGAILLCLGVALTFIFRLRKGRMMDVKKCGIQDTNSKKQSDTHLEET

B1: H10 anti-PD-L1 antibody (antibody, V domains shown)
VH: EVQLVQSGGGLVQPGGSLRLSCAASGFTFSSYSMNWVRQAPGKGLEWVSYISSSSSTIYYADSVKGRFTISRDNAKNSLYLQMNSLRDEDTAVYYCARGDYYYGMDVWGQGTTVTVSS
VL: EIVLTQSPSSLSASIGDRVTLTCRASQSIRRFLNWYQQKPGKAPELLIYTASSLQSGVPSRFSGSGSGTDFTLTINSLQPEDFATYYCQQSYAVSPYTFGQGTKVEIR
As a reminder, the EC50 is the midpoint of the concentration-response curve. The low end stands for an effect from little substance, the high end for a need for much substance. In the case of B1, it took 0.021 µg/mL to reach a half-maximal effect (EC50).

B2: H6 anti-PD-L1 antibody (antibody, V domains shown)
VH: QMQLVQSGAEVKKPGSSVKVSCKASGGTFSSYAISWVRQAPGQGLEWMGGIIPIFGTANYAQKFQGRVTITADESTSTAYMELSSLRSEDTAVYYCARGNIVATITPLDYWGQGTLVTVSS
VL: SYELMQPPSVSVAPGKTATIACGGENIGRKTVHWYQQKPGQAPVLVIYYDSDRPSGIPERFSGSNSGNTATLTISRVEAGDEADYYCQVWDSSSDHRIFGGGTKLTVL
The molecule B2 yielded an EC50 of 0.03 µg/mL.

These data come from patent US20130323249A1 (published 2013).
